Data: PMC4892554

The substances below were run against D25 (assay: flow cytometry on cells (shotgun mutagenesis alanine scan, HEK293T)). Conditions: read off a plot.

Row | Substance | percent of parent [% WT]
1 | wildtype RSV F (RSV-A2) expressed on HEK-293T cells (from UniProt P03420) D385A | 88
2 | wildtype RSV F (RSV-A2) expressed on HEK-293T cells (from UniProt P03420) F387A | 74
3 | wildtype RSV F (RSV-A2) expressed on HEK-293T cells (from UniProt P03420) G446A | 90
4 | wildtype RSV F (RSV-A2) expressed on HEK-293T cells (from UniProt P03420) K433A | 120
5 | wildtype RSV F (RSV-A2) expressed on HEK-293T cells (from UniProt P03420) K465A | 100
6 | wildtype RSV F (RSV-A2) expressed on HEK-293T cells (from UniProt P03420) N388A | 74
7 | wildtype RSV F (RSV-A2) expressed on HEK-293T cells (from UniProt P03420) N426A | 230

What follows are substances tested against Palivizumab in the same assay as above. Conditions: read off a plot.

Row | Substance | percent of parent [% WT]
8 | wildtype RSV F (RSV-A2) expressed on HEK-293T cells (from UniProt P03420) D385A | 140
9 | wildtype RSV F (RSV-A2) expressed on HEK-293T cells (from UniProt P03420) F387A | 150
10 | wildtype RSV F (RSV-A2) expressed on HEK-293T cells (from UniProt P03420) G446A | 70
11 | wildtype RSV F (RSV-A2) expressed on HEK-293T cells (from UniProt P03420) K433A | 150
12 | wildtype RSV F (RSV-A2) expressed on HEK-293T cells (from UniProt P03420) K465A | 140
13 | wildtype RSV F (RSV-A2) expressed on HEK-293T cells (from UniProt P03420) N388A | 87
14 | wildtype RSV F (RSV-A2) expressed on HEK-293T cells (from UniProt P03420) N426A | 290
